In the supplement of paper PMC10567573:
± gives the standard deviation.

Assay: protein stability index of a GFP-peptide fusion (GPS, HEK-293T) (PSI 1-6); higher = more stable
[1] = treatment: DMSO, c terminus: a fixed tail appended
[2] = treatment: MLN4924 1 uM, 8 h, c terminus: a fixed tail appended
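Note: 24-mer peptide tiles fused after GFP, lentivirally expressed, FACS-sorted into six equal bins by GFP/DsRed ratio, decoded by Illumina sequencing, PSI is the read-weighted mean bin number.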

Sequence	protein stability index [1]	protein stability index [2]	protein stability index (treatment: DMSO, c terminus: native)	protein stability index (treatment: MLN4924 1 uM, 8 h, c terminus: native)
DFWLMVWEQKVLVIVMTTRFEEGG [PTPN9]	2.69 ± 0.77	2.58 ± 0.07		
DGAEIAEKFVFFIGSKNGGKTTII [DYNC2LI1]	2.26 ± 0.78	2.05 ± 0.54		
DGDDKVFRRAPSWRKRFRPREHHG [PPFIA4]	3.48 ± 0.55	4.58 ± 0.14		
DKPSEPASEEGSESEGSESSGRSC [SMG5]	5.56 ± 0.25	5.6 ± 0.14		
DKTCSKTKNKSKHALRKKQLKRQK [FAM9B]	4.49 ± 0.21	4.59 ± 0.23		
DKVIMKLGKTNAKAVSEMRQKIWN [DYNC2LI1]	2.31 ± 0.12	2.54 ± 0.32		
DKVSDGVTKSPEKRSSLPRPSSIL [MAP2]	4.88 ± 0.14	4.99 ± 0.26		
DLDSCSRDGALLGCSLTADGLPLH [MYORG]	3.32 ± 0.28	3.51 ± 0.3		
DLEVDMNKTEVTPRLWTTCRDGEV [ACSBG2]	3.96 ± 0.15	3.95 ± 0.064		
DLGHVTRISSPQVEEGDSRFLANE [WEE1]	4.88 ± 0.29	4.96 ± 0.27		
DLLFIVDTMLEEVENKEKDSNMPH [CEP70]	2.29 ± 0.24	2.76 ± 0.38		
DLSGIQTSDAAFLTQWKDSLVSLV [ZER1]	2.37 ± 0.33	2.49 ± 0.26		
DLVPAALGSLTTAQIARSVWRPW [HES6]			2.09 ± 0.17	2.32 ± 0.43
DPEEAIRHDVIVSIVTAAKKDILL [PDS5B]	2.3 ± 0.15	2.54 ± 0.3		
DPKITCKQECLITTFQDVYFVSES [TPH1]	2.5 ± 0.36	2.14 ± 0.49		
DQLNDGQDFAKDLLKTLYNSIKNE [PSD2]	3.56 ± 0.21	3.71 ± 0.32		
DRARRFEEALRKNTEEQLEIALAP [MTUS2]	4.9 ± 0.22	4.85 ± 0.28		
DRDGHIKLTDFGFAKKLVDRTWTL [PRKX]	2.1 ± 0.35	2.35 ± 0.42		

Sequence	protein stability index [1]	protein stability index [2]	protein stability index (treatment: DMSO, c terminus: native)	protein stability index (treatment: MLN4924 1 uM, 8 h, c terminus: native)
DRTSLATFHEGKHNISHMSMDIAR [WDFY1]	3.54 ± 0.24	3.56 ± 0.33		
DTFKVPKEMFTVGCCVFAFLVGLL [SLC6A17]	2.3 ± 0.51	2.21 ± 0.6		
DTMQNIESTIVELGSIFQQLAHMV [STX5]	2.47 ± 0.13	2.52 ± 0.38		
DTTRQVQRISCFQSTVKCLTVLQR [WDR41]	2.42 ± 0.33	2.63 ± 0.35		
DVQARLNRSDHGIFHSRTSLQKLS [FCHSD1]	3.09 ± 0.22	3.16 ± 0.3		
DVRQNPCGSKACRRLFGPVDSEQL [CDKN1A]	3.03 ± 0.2	3.12 ± 0.28		
DWFTSYVKNVVSGGFPIIRDQIFR [FBXO3]	2.61 ± 0.34	2.41 ± 0.39		
EAAGSFTSSLAQPGAYYPYERTLG [IRX6]	3.24 ± 0.14	3.28 ± 0.42		
EACMTHLHYKWIPVEDSHTADISS [DUSP5]	3.53 ± 0.23	3.63 ± 0.11		
EAIKNEMNVMLKSSPVDLVTATDQ [IMPA1]	4.21 ± 0.11	4.67 ± 0.17		
EAITSASFLEQIMAPLQPSTSRAH [FAM189A2]	3.52 ± 0.13	3.59 ± 0.22		
EALYAQDPSTGCYMYYFQYLSKTY [KMT5A]	3.26 ± 0.94	2.42 ± 1.1		
EAVARHMLIFSLALEEPEKMGLQE [DNAAF3]	2.47 ± 0.55	2.28 ± 0.27		
EAVFLRAVKLYNSGDFRSSTEDME [P3H4]	3.69 ± 0.36	3.73 ± 0.52		
EDLQDGDVRMGGSFRGAFSNSEKA [NET1]	4.98 ± 0.63	5.252 ± 0.051		
EDSILGDPKKLLTQHFVQENYLEY [MAGEA3]	3.75 ± 0.36	3.79 ± 0.28		
EDVTVGRRQAVAWLVAMHKAAKLL [ZFYVE21]	2.48 ± 0.34	2.59 ± 0.35		
EDYSAEYIIQQGGWGTVFSLESEE [BCL2L13]	4.17 ± 0.29	3.96 ± 0.46		
